Measurements as given in paper PMC4193741 (PLoS ONE, 2014).

B1: S5 scFv (scFv, V domains shown)
VH: EVQLLESGGGLVQPGGSLRLSCAASGFTFSNYCIGWVRQAPGKGLEWVSPINSNNSNTEYADSVKGRFTISRDNSKNTLYLQMNSLRAEDTAVYYCARCSLPQISHFDYWGQGTLVTVSS
VL: EIVLTQSPGTLSLSPGERATLSCRASQNVSNYVSWYQQKPGQAPRLLIYDISTLQTGIPDRFSGSGSGTDFTLTISRLEPEDFAVYYCPKRVSTGGTFGQGTKVEIK
B2: SP1 scFv (scFv, V domains shown)
VH: EVQLLESGGGLVQPGGSLRLSCAASGFTFSDYAMYWVRQAPGKGLEWVSGIDINGSNTKYADSVKGRFTISRDNSKNTLYLQMNSLRAEDTAVYYCARKYNHNNHQNTTNFDYWGQGTLVTVSS
VL: EIVLTQSPGTLSLSPGERATLSCRASQNSSSYLSWYQQKPGQAPRLLIYYTSKLESGIPDRFSGSGSGTDFTLTISRLEPEDFAVYYCETVPSLLGVFGQGTKVEIK
notes: also called clone SP1; anti-PreS2 SP1 scFv

How the values were obtained:
[1] = biological target: T1, GST-fused N1 antigen (N1 epitope of H1N1 influenza virus) (Influenza A virus H1N1, neuraminidase …); experiment: SPR; Biacore 3000, CM5 chip; […], PBS running buffer; […]; conditions: both partners purified
T1 construct: not shown: GST, N-terminal, kept
T1 chain: CRDNWHGSNRPW

[2] = biological target: T2, GST-fused PreS2 antigen (PreS2 epitope of HBV) (Hepatitis B virus, PreS2 epitope …); experiment: as above; conditions: both partners purified
T2 construct: also called GST-PreS2; PreS2 of HBV; not shown: GST, N-terminal, kept
T2 chain: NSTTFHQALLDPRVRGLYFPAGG

Row | Binder | Kd [1] | Kd [2]
1 | B1 | 11 nM | 
2 | B2 |  | 11.5 nM
